Source: the supplement of paper PMC6757056
± gives the standard deviation of the averaged measurements.

B1: library; a variant is named by its letters at N, in order (parent)
chain: GCUGUCACCGGUGCUUGGUACGUUAUAUUCAGCCGGUCUGAUGAGUCUNNNNNNAGACGAAACAGC

Legend:
(6R,S)-folinic acid [1] = variants of: B1; experiment: FACS-Seq fitted mean relative fluorescence mCherry/BFP without ligand (log10 relative fluorescence); HEK293T overexpressing SLC46A1; higher = higher reporter protein expression; details: without (6R,S)-folinic acid; ligand present: no
In short: (§1)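 After lentiviral transduction, HEK293T library cells bearing an mCherry ribozyme-switch reporter and an EF1α-BFP marker were enriched. They were then held for 48 h with or without ligand and sorted by mCherry/BFP into 6 bins, and each bin's genomic DNA was PCR-amplified, barcoded and MiSeq-sequenced. Fluorescence is expressed as a normalized fitted mean: the normal mean of log10(mCherry/BFP) bin counts, scaled to five spiked-in control ribozymes.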

(6R,S)-folinic acid [2] = variants of: B1; experiment: normalized RNA/DNA level without ligand (relative to sTRSVctl = 100) (log10 (% of sTRSVctl)); HEK293T overexpressing SLC46A1; higher = less ribozyme self-cleavage, higher mRNA level; details: without (6R,S)-folinic acid; ligand present: no
In short: (§2)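 Ribozyme switch library plasmids linked to reporters were introduced into HEK293T cells at 4 µg per 6-well well, with ligand, if any, added 1 h before. Total RNA was extracted with EDTA 72 h later, reverse-transcribed, amplified, barcoded and sequenced. RNA level was computed from RNA over DNA reads relative to a spiked-in non-cleaving sequence or the top sequences, then scaled and log-transformed. The top set was 25 sequences, values were ×100 and log10, and the cutoff was ≥100 DNA reads.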

(6R,S)-folinic acid [3] = variants of: B1; experiment: FACS-Seq fitted mean relative fluorescence mCherry/BFP with ligand (log10 relative fluorescence); HEK293T overexpressing SLC46A1; ligand concentration (+) FACS-Seq: 6 mM; higher = higher reporter protein expression; details: with (6R,S)-folinic acid; ligand present: yes
In short: as §1

(6R,S)-folinic acid [4] = variants of: B1; experiment: normalized RNA/DNA level with ligand (relative to sTRSVctl = 100) (log10 (% of sTRSVctl)); HEK293T overexpressing SLC46A1; ligand concentration (+) RNA-Seq: 6 mM; higher = less ribozyme self-cleavage, higher mRNA level; details: with (6R,S)-folinic acid; ligand present: yes
In short: as §2

| Variant | FACS-Seq fitted mean (log10) ((6R,S)-folinic acid [1]) | normalized RNA/DNA level without ligand (log10) ((6R,S)-folinic acid [2]) | FACS-Seq fitted mean (log10) ((6R,S)-folinic acid [3]) | normalized RNA/DNA level with ligand (log10) ((6R,S)-folinic acid [4]) |
| --- | --- | --- | --- | --- |
| AUAUUC | -0.738 ± 0.81 | 2.035 ± 0.019 | -1.5 ± 0.9 | 2.031 ± 0.01 |
| GGUUAU | 0.612 ± 0.021 | 1.989 ± 0.019 | 0.481 ± 0.077 | 1.98 ± 0.023 |
| GGUUAG | 0.215 ± 0.017 | 1.982 ± 0.016 | 0.245 ± 0.13 | 2 ± 0.035 |
| AUAAGU | 0.346 ± 0.17 | 1.88 ± 0.024 | 0.682 ± 0.15 | 2.01 ± 0.044 |
| AUAAGG | 0.0495 ± 0.016 | 1.882 ± 0.011 | 0.356 ± 0.25 | 1.99 ± 0.012 |
| AUAAGC | 0.38 ± 0.1 | 2.003 ± 0.0058 | 0.792 ± 0.04 | 2.02 ± 0.042 |
| AGUUCA | 0.161 ± 0.15 | 2.005 ± 0.006 | -0.01 ± 0.41 | 2.008 ± 0.012 |
| UGUCGG | 0.0192 ± 0.057 | 1.66 ± 0.015 | 0.166 ± 0.29 | 1.94 ± 0.043 |
| UGUCGU | 0.152 ± 0.076 | 1.95 ± 0.012 | 0.267 ± 0.017 | 2 ± 0.021 |
| AUACCA | -0.158 ± 0.032 | 2.036 ± 0.01 | -0.268 ± 0.23 | 2.01 ± 0.043 |
| CUAAUA | 0.179 ± 0.11 | 1.974 ± 0.0043 | 0.335 ± 0.36 | 1.982 ± 0.007 |
| GGUGAC | 0.359 ± 0.087 | 2.027 ± 0.008 | 0.217 ± 0.074 | 2.01 ± 0.037 |
| GGUGAU | 0.294 ± 0.15 | 2.015 ± 0.013 | 0.491 ± 0.23 | 2.028 ± 0.018 |
| GGUGCA | 0.256 ± 0.027 | 2.037 ± 0.017 | 0.204 ± 0.17 | 2.04 ± 0.032 |
| GGUGCU | -0.205 ± 0.13 | 2.005 ± 0.017 | 0.149 ± 0.25 | 2.01 ± 0.046 |
| CUAUUU | 0.149 ± 0.064 | 1.984 ± 0.0088 | -0.0506 ± 0.019 | 1.984 ± 0.016 |
| CUAUUG | 0.309 ± 0.21 | 2.023 ± 0.011 | 0.316 ± 0.2 | 2.01 ± 0.0053 |
| UUAUCU | 0.453 ± 0.099 | 2.0125 ± 0.0014 | 0.133 ± 0.1 | 2.03 ± 0.0072 |
| CUAGAU | 0.368 ± 0.079 | 1.957 ± 0.0032 | 0.387 ± 0.061 | 2 ± 0.028 |
| UUACUG | -0.466 ± 0.24 | 1.902 ± 0.011 | -0.804 ± 0.28 | 2.01 ± 0.066 |
| UUAAGA | 0.166 ± 0.039 | 1.95 ± 0.024 | 0.272 ± 0.014 | 2.04 ± 0.029 |
| UUAAGG | 0.0635 ± 0.0074 | 1.855 ± 0.0022 | 0.25 ± 0.22 | 1.98 ± 0.025 |
| CGUGAA | 0.328 ± 0.19 | 1.9509 ± 0.0012 | 0.192 ± 0.33 | 2.01 ± 0.028 |
| CGUGAC | 0.241 ± 0.037 | 2.015 ± 0.01 | 0.201 ± 0.09 | 1.99 ± 0.052 |

| Variant | FACS-Seq fitted mean (log10) ((6R,S)-folinic acid [1]) | normalized RNA/DNA level without ligand (log10) ((6R,S)-folinic acid [2]) | FACS-Seq fitted mean (log10) ((6R,S)-folinic acid [3]) | normalized RNA/DNA level with ligand (log10) ((6R,S)-folinic acid [4]) |
| --- | --- | --- | --- | --- |
| CUAAGU | 0.502 ± 0.033 | 2 ± 0.022 | 0.535 ± 0.079 | 1.995 ± 0.0037 |
| GUAUUU | 0.142 ± 0.24 | 2 ± 0.022 | 0.173 ± 0.0069 | 2.01 ± 0.033 |
| UGUCUG | 0.171 ± 0.096 | 1.73 ± 0.02 | 0.451 ± 0.14 | 1.96 ± 0.047 |
| UGUGGU | 0.0696 ± 0.063 | 1.89 ± 0.022 | 0.265 ± 0.0042 | 2 ± 0.054 |
| UGUGGG | 0.109 ± 0.02 | 1.6031 ± 0.0006 | 0.695 ± 0.086 | 1.96 ± 0.017 |
| UGUGGA | -0.112 ± 0.058 | 1.816 ± 0.0017 | 0.123 ± 0.11 | 2 ± 0.027 |
| UGUUAC | 0.317 ± 0.16 | 1.947 ± 0.018 | 0.39 ± 0.013 | 1.99 ± 0.021 |
| UGUUAA | -0.0426 ± 0.13 | 1.92 ± 0.024 | 0.191 ± 0.081 | 1.98 ± 0.022 |
| UGUUAG | 0.447 ± 0.11 | 1.63 ± 0.04 | 0.762 ± 0.15 | 1.929 ± 0.016 |
| GGUGGA | 0.534 ± 0.074 | 2.054 ± 0.01 | 0.58 ± 0.079 | 2.06 ± 0.062 |
| GUAAGC | 0.239 ± 0.059 | 1.896 ± 0.0061 | 0.33 ± 0.072 | 2.01 ± 0.013 |
| GUAAGG | 0.183 ± 0.078 | 1.946 ± 0.015 | 0.381 ± 0.047 | 2.025 ± 0.015 |
| GUAAUA | -0.154 ± 0.025 | 1.996 ± 0.006 | 0.161 ± 0.059 | 1.97 ± 0.039 |
| GUAAUG | 0.394 ± 0.16 | 1.94 ± 0.023 | 0.532 ± 0.053 | 1.98 ± 0.038 |
| GUAAUC | 0.0594 ± 0.051 | 2.09 ± 0.023 | -0.00665 ± 0.0039 | 2.063 ± 0.0092 |
| CUAAAG | -0.0676 ± 0.063 | 1.913 ± 0.0067 | -0.0285 ± 0.2 | 2 ± 0.035 |
| CUAAAA | 0.151 ± 0.029 | 1.98 ± 0.021 | 0.19 ± 0.12 | 1.98 ± 0.048 |
| UUACCC | 0.388 ± 0.015 | 2.018 ± 0.015 | 0.263 ± 0.21 | 2.01 ± 0.03 |
| CGUCUC | 0.692 ± 0.063 | 2.06 ± 0.013 | 0.48 ± 0.48 | 1.996 ± 0.015 |
| CGUCUA | -0.111 ± 0.073 | 2.0035 ± 0.0014 | 0.325 ± 0.29 | 2.033 ± 0.0082 |
| UUAAUA | 0.0221 ± 0.032 | 2.006 ± 0.0071 | 0.171 ± 1.6 | 2.02 ± 0.022 |
| UUAAUG | 0.316 ± 0.0067 | 1.819 ± 0.0065 | 0.461 ± 0.14 | 1.97 ± 0.012 |
| UUAUAC | 0.677 ± 0.11 | 1.994 ± 0.012 | 0.593 ± 0.097 | 1.99 ± 0.036 |
| UUAUAG | 0.192 ± 0.026 | 1.8081 ± 0.0015 | 0.396 ± 0.16 | 1.99 ± 0.034 |

| Variant | FACS-Seq fitted mean (log10) ((6R,S)-folinic acid [1]) | normalized RNA/DNA level without ligand (log10) ((6R,S)-folinic acid [2]) | FACS-Seq fitted mean (log10) ((6R,S)-folinic acid [3]) | normalized RNA/DNA level with ligand (log10) ((6R,S)-folinic acid [4]) |
| --- | --- | --- | --- | --- |
| UGUUGA | 0.32 ± 0.026 | 1.837 ± 0.015 | 0.463 ± 0.13 | 2.01 ± 0.035 |
| UGUUGG | -0.0684 ± 0.078 | 1.53 ± 0.048 | 0.426 ± 0.024 | 1.88 ± 0.042 |
| GUAGAU | 0.516 ± 0.029 | 1.9541 ± 0.0012 | 0.494 ± 0.37 | 1.98 ± 0.047 |
| GUAGAA | 0.384 ± 0.0046 | 1.954 ± 0.0058 | 0.522 ± 0.23 | 1.995 ± 0.0074 |
| GUAGAG | 0.201 ± 0.057 | 1.759 ± 0.015 | 0.87 ± 0.12 | 1.98 ± 0.035 |
| AGUUGC | 0.455 ± 0.088 | 2.001 ± 0.0034 | 0.705 ± 0.23 | 2.03 ± 0.016 |
| AGUUGU | 0.3648 ± 0.0018 | 1.962 ± 0.012 | 0.521 ± 0.35 | 2.04 ± 0.028 |
| AGUUGA | 0.17 ± 0.13 | 1.964 ± 0.015 | 0.105 ± 0.028 | 2.018 ± 0.016 |
| AUAAAA | 0.343 ± 0.0039 | 1.9901 ± 0.0019 | 0.263 ± 0.23 | 1.994 ± 0.016 |
| AUAAAG | 0.418 ± 0.03 | 1.901 ± 0.0089 | 0.417 ± 0.016 | 2 ± 0.036 |
| AUAAAC | -0.0226 ± 0.13 | 1.998 ± 0.0043 | -0.127 ± 0.3 | 1.99 ± 0.026 |
| AUAAAU | 0.45 ± 0.08 | 1.951 ± 0.017 | 0.359 ± 0.082 | 2.028 ± 0.007 |
| GUAGCU | 0.643 ± 0.11 | 2.009 ± 0.01 | 0.287 ± 0.14 | 1.998 ± 0.0026 |
| GUACAG | 0.519 ± 0.15 | 1.938 ± 0.018 | 0.81 ± 0.0085 | 2 ± 0.024 |
| GUACAC | 0.175 ± 0.17 | 1.984 ± 0.01 | 0.311 ± 0.16 | 2.029 ± 0.019 |
| AUAAUA | 0.469 ± 0.017 | 1.982 ± 0.0023 | 0.369 ± 0.62 | 1.992 ± 0.015 |
| AUAGGU | 0.477 ± 0.19 | 1.87 ± 0.023 | 0.695 ± 0.3 | 2.01 ± 0.047 |
| AUAGGG | -0.255 ± 0.066 | 1.599 ± 0.0044 | 0.286 ± 0.019 | 1.92 ± 0.025 |
| AUAGGC | 0.336 ± 0.054 | 2.013 ± 0.012 | 0.59 ± 0.1 | 2.047 ± 0.016 |
| GUAACC | 0.499 ± 0.17 | 2.059 ± 0.0095 | 0.419 ± 0.081 | 2.053 ± 0.017 |
| GUAGGG | 0.666 ± 0.045 | 1.881 ± 0.0094 | 0.643 ± 0.24 | 1.99 ± 0.024 |
| UUAGGC | 0.366 ± 0.0042 | 1.974 ± 0.0042 | 0.465 ± 0.26 | 2 ± 0.058 |
| UUAGGA | 0.674 ± 0.033 | 1.879 ± 0.014 | 0.677 ± 0.022 | 2 ± 0.045 |
| UUAGGG | 0.0949 ± 0.0093 | 1.776 ± 0.008 | 0.324 ± 0.11 | 2 ± 0.021 |
